Here are results for three molecules from US20240309090A1, “MODULATION OF ANDROGEN SIGNALING TO INNATE IMMUNE KILLING OF PROSTATE CANCER” (Brown University, priority 2023, published 2024).

In assay [1] the test system is DU145. Kind of assay: Flow cytometry of HLA-E surface expression on non-AR-transduced DU145. Format: cell-based. From the text:
(§1) To evaluate the modulation of the androgen receptor and tumor HLA-E expression, we astably transduced AR negative cell lines PC3 and DU145 with an Androgen Response Element (ARE) GFP reporter (FIG. 16H). […] Using AR+ constructed cell lines, PC3 and DU145, we sought to determine the dependence of HLA-E expression and possible modulation by AR. […] Although potential therapies targeting immune enhancement are being explored, the expression of exhaustion markers such as PD-1, NKG2A, and potential engaging ligands that diminish their cytotoxic function limits their application. Exploring these factors with new combination approaches, such as ARi and anti-NKG2A, and understanding the modulation of its targets upon treatment is key in overcoming immune-resistant scenarios, especially in prostate cancer.
PCa cells were plated at a density of 3×10^5 cells per well of a 6-well plate and adhered overnight. […] After treatment, cells were trypsinized, stained, and incubated (Cell Staining Buffer SouthernBiotech #0225-01S) with the corresponding antibody for 45-60 min at 4° C. Viability dye was added with each run. NK-92 cells and patient-derived cells were stained similarly. […]
On the technique in general: A flow cytometer gives signals particle by particle.

Assay [2] has as its system NK cells. The experiment in a line: Flow cytometry of NKG2A and PD-1 surface expression on NK cells. Format: cell-based. How it is done: (§2) PCa cells were plated at a density of 3×10^5 cells per well of a 6-well plate and adhered overnight. […] After treatment, cells were trypsinized, stained, and incubated (Cell Staining Buffer SouthernBiotech #0225-01S) with the corresponding antibody for 45-60 min at 4° C. Viability dye was added with each run. NK-92 cells and patient-derived cells were stained similarly. Markers used for experiments included: Thermofisher HLA-E Monoclonal Antibody (3D12HLA-E), Alexa Fluor™ 488, eBioscience™, CD274 (PD-L1, B7-H1) Monoclonal Antibody (MIH1), eFluor™ 450, eBioscience™, Cell Signaling PD-1 (D4W2J) XPR Rabbit mAb, SYTOX™ Orange Dead Cell Stain, for flow cytometry, BioLegend APC anti-human CD159a (NKG2A) Antibody #375108, BioLegend APC anti-human CD69 Antibody #310909, BioLegend Alexa Fluor® 647 anti-human CD137 (4-1BB) [4B4-1] #309823. For staining of the patient-derived PBMCs and subsequent NK cell characterization, the following antibodies were used: BioLegend Anti-Perforin Mouse Monoclonal Antibody (PerCP Cy5.50, clone: dG9) #308113, BioLegend Anti-Granzyme B Mouse Monoclonal Antibody (FITC, clone: GB11) #515403, BioLegend Anti-CD56 Mouse Monoclonal Antibody (Alexa Fluor® 700, clone: 5.1H1) #362521, and BioLegend (PE anti-human CD45 Antibody) #304008.
Methods: PCa cell lines (LNCaP, 22Rv1 [ARv7 mutation], DU145[AR-], PC3 [AR-]) were cocultured with NK-92 cells and treated with ARi (enzalutamide [enza] and darolutamide [daro]) or in combination with anti-NKG2A antibody monalizumab. Immune cell-mediated tumor cell killing assays and multiplexed cytokine profiling were performed. NKc expression of NKG2A and PCa cells expression of HLA-E were investigated by flow cytometry. The AR-negative cell lines (PC3 and DU145) were stably transduced with a functional AR pathway to evaluate the modulation of HLA-E by AR. The activation status of peripheral blood NKc isolated from patients with PCa before and post-initiation of androgen deprivation therapy (ADT) was investigated by flow cytometry.

Assay [3] has as its system PC3 cell line. Kind of assay: Flow cytometry of HLA-E surface expression on AR-negative PC3. Format: cell-based. The settings on record: for surface expression of HLA-E: PC3, DHT 30 nM, vorinostat 0.3 μM, panobinostat 3 nM, 48 h.
Description: as §1
Experiments were conducted with noncytotoxic doses of vorinostat (0.3 μM) and panobinostat (3 nM).
as §2

For assay [4], the system named is LNCaP cells. Kind of assay: Flow cytometry of HLA-E / PD-L1 surface expression on LNCaP. The settings on record: LNCaP, DHT 30 nM, vorinostat 0.3 μM, panobinostat 3 nM, 48 h. The format is cell-based. As for the experimental part:
The effect of ARi on the NKG2A ligand, HLA-E, was investigated by flow cytometry on PCa cells treated with enza and daro.
as §2
The effect of androgen pathway inhibitors in the expression of HLA-E, a negative and key negative modulator of NK cell function, was also performed using Flow Cytometry. PD-L1 expression levels were also measured. In advance, The NK cell immune checkpoint inhibitor monalizumab (targeting NKG2A and its ligand, HLA-E) was also combined with ARi.

The subject of assay [5] is LNCaP. The experiment in a line: Co-culture of GFP-expressing LNCaP with patient-derived NK cells. Format: cell-based, human. From the text:
(§3) To validate an additive effect of ARi and monalizumab enhancing NK cell cytotoxicity, we performed a co-culture assay with GFP-labeled PCa cell lines (including ARi-sensitive LNCaP and ARi-resistant PC3) and patient-derived NK cells. The NK cells were negatively selected from whole blood from patients with metastatic prostate cancer before initiation of androgen deprivation therapy. The addition of enzalutamide or darolutamide enhanced the cytotoxicity of NK cells, and the combination of ARi with monalizumab potentiated immune killing (FIG. 15C-D).
(§4) Prostate cancer cell lines were dyed with the blue CMAC live-cell dye (Thermo Fisher Scientific #C2110, per manufacturer protocol). Blue-fluorescent cancer cells were plated at a density of 10,000 cells per well of a 48-well plate. NK-92 cells were dyed with green CMFDA (Cayman Chemical Company #19583, per manufacturer protocol). Green-fluorescent NK-92 cells were added to the blue-fluorescent cancer cells at a 1:1 ratio. Enzalutamide (10 μM), darolutamide (20 μM), and 1 μM ethidium homodimer (EthD-1) were added at the same time as the NK cells. After 24 hours of co-culture, images of live cancer cells, live NK cells, and dead cells were taken using a fluorescent microscope. The co-culture experiments were run with internal control conditions and as a single treatment. Normalization was performed after analysis to take baseline death conditions into each experiment run. To optimize the high output of these experiments, a subset of co-cultures were performed using the ImageXpress® Micro Confocal High-Content Imaging. This analysis maintained the experiment conditions, drug concentrations, and the dyeing process. When GFP-labeled tumor cells were used for culture assays, they were added in a 1:1 ratio. Cell adhered over 24 h, and when patient-derived NK cells were added, a control well was trypsinized, and cells resuspended and counted to adjust a 1:1 ratio before treatment addition. The experiments with blocking antibodies were performed using the ImageXpress system. TRAIL blocking ab was purchased from Santa Cruz TRAIL Antibody (RIK-2): sc-56246, and IFN gamma blocking Monoclonal Antibody (NIB42, #6-7318-81) was purchased from Thermo Fisher. The blocking mAb was added when NK cells were combined with tumor cells.
(§5) NK cells were isolated from patients harboring metastatic castration-sensitive prostate cancer using the MojoSort™ Human NK Cell Isolation Kit (#480053). Patients signed informed consent for IRB-approved research protocol number 2055-13, allowing the collection of peripheral blood samples. […] The untouched NK cells (CD56+, CD3−) were collected, and the purity of isolation was determined by flow cytometry using anti-CD56 (BioLegend 362503). […]

Assay [6] concerns PC cell lines (LNCap, 22Rv1, DU145, PC3). The experiment in a line: Co-cultures of PC cell lines with NK cells (1:1), immune-mediated PC killing. The format is cell-based. How it is done: as §4
Live cancer cells, NK cells, and dead cells were quantified using FIJI (Fiji Is Just ImageJ) software for images derived from fluorescent co-culture images. Images from the ImageXpress system were quantified using MetaXpress cytoplasmic/nuclear staining software. The percent of dead tumor cells in each well was quantified, and this percentage was normalized by subtracting baseline death from cancer cell-only wells, NK cell-only wells, or both. A two-way ANOVA was used to calculate the interaction effect between drug treatment and NK cells.
In groups with a significant interaction effect, data was further normalized in the cancer cell+NK cells+drug treatment well by subtracting out death in the cancer cell+drug well. A one-way ANOVA and multiple comparison analysis with subsequent t-tests were used to calculate the statistical significance of the difference between this group and the cancer cell+NK cell well. GraphPad Prism Version 9.5.1 was used for statistical analysis.
We conducted cell viability assays to investigate the effect of Enza and Daro on PC cells (LNCap, 22Rv1 [ARv7 mutation], DU145, PC3 [AR-]) and NK-92 cells. We performed co-culture experiments with PC and NK cells in a 1:1 ratio and analyzed immune cell-mediated tumor cell killing (ImageXpress Confocal HT). Cytokine profiling (Luminex 200) of culture supernatants was performed following treatment with ARi−/+ and anti-IFN-γ antibodies. In vivo studies were performed in NCr Nude mice harboring subcutaneous PC tumors treated orally with Daro (50 mg/kg/bid) and Enza (30 mg/kg/bid) for 4 weeks.
We performed ATP-based (CellTiter-Glo) viability assays to investigate the effect of Enzalutamide and Darolutamide on PC cell lines (LNCap, 22Rv1 [ARv7 mutation], DU145, PC3 [AR-]) and NK-92 cells. We performed co-culture experiments with PC and NK cells at a 1:1 ratio throughout 4 h, 6 h, 12 h, 24 h, and 48 h periods. We analyzed immune cell-mediated tumor cell killing in the presence of Enza and Darolutamide (ImageXpress Confocal HT). Western Blotting was performed to evaluate different protein expression levels and their regulation related to sensitivity in mediating immune-mediated cell killing (apoptotic family). […]

Assay [7] concerns PC3. Kind of assay: Co-culture of GFP-expressing PC3 with patient-derived NK cells. Format: cell-based, human.
Description: as §3, §4, §5

Assay [8] concerns 22Rv1. Kind of assay: Co-culture of 22Rv1 with NK-92 cells, immune-mediated tumor cell killing. The format is cell-based. As to conditions: 22Rv1 + NK-92 1:1, enzalutamide 10 μM, FIG. 15B. As for the experimental part: (§6) They were co-treated with enzalutamide ([…]) or darolutamide (20 μM) for 48 h. Doses of AR inhibitors (ARi) used in the co-culture experiments were based on previous IC50 experiments. […] The immune-mediated effect of NK-92 on the PCa cell lines in the presence of enzalutamide (immune enhancement death) was normalized to baseline immune and tumor cell killing in each condition [(tumor cells+immune cells)-tumor baseline death=baseline immune death]. […] Cytokine analysis was performed to investigate the activation phenotype of NK cells when treated with ARi.
(§7) Prostate cancer cell lines were dyed with the blue CMAC live-cell dye (Thermo Fisher Scientific #C2110, per manufacturer protocol). Blue-fluorescent cancer cells were plated at a density of 10,000 cells per well of a 48-well plate. NK-92 cells were dyed with green CMFDA (Cayman Chemical Company #19583, per manufacturer protocol). Green-fluorescent NK-92 cells were added to the blue-fluorescent cancer cells at a 1:1 ratio. Enzalutamide (10 μM), darolutamide (20 μM), and 1 μM ethidium homodimer (EthD-1) were added at the same time as the NK cells. After 24 hours of co-culture, images of live cancer cells, live NK cells, and dead cells were taken using a fluorescent microscope. The co-culture experiments were run with internal control conditions and as a single treatment. Normalization was performed after analysis to take baseline death conditions into each experiment run. […] Cell adhered over 24 h, and when patient-derived NK cells were added, a control well was trypsinized, and cells resuspended and counted to adjust a 1:1 ratio before treatment addition. […]
(§8) Live cancer cells, NK cells, and dead cells were quantified using FIJI (Fiji Is Just ImageJ) software for images derived from fluorescent co-culture images. Images from the ImageXpress system were quantified using MetaXpress cytoplasmic/nuclear staining software. The percent of dead tumor cells in each well was quantified, and this percentage was normalized by subtracting baseline death from cancer cell-only wells, NK cell-only wells, or both.

Assay [9] has as its system LNCaP. The experiment in a line: Co-culture of LNCaP with NK-92 cells, immune-mediated tumor cell killing. The format is cell-based. As to conditions: LNCaP + NK-92 1:1, enzalutamide 10 μM, FIG. 15A. As for the experimental part: as §6, §7, §8

Turning to `C[C@]12CCC(=O)C[C@@H]1CC[C@@H]1[C@@H]2CC[C@]2(C)[C@@H](O)CC[C@@H]12` [DHT, dihydrotestosterone], the HLA-E expression came out at 1.84% in [1] and 11.28% in assay [3] (non-AR-transduced PC3). For the same molecule, the “surface expression of NKG2A” value in [2] is reported as “reversed”. In addition, the “surface expression of PD-1” value in assay [2] (MFI) is listed as “reversed”. In addition, the “surface expression of HLA-E” value in assay [3] was “did not alter”.
As to `O=C(CCCCCCC(=O)Nc1ccccc1)NO` [vorinostat], the “surface expression of HLA-E” value in assay [3] is listed as “did not change”. In addition, in assay [4], the “expression of HLA-E upon DHT treatment with HDACi” value is on record as “did not change significantly”.

B1: monalizumab (antibody, chains of the INN, looked up, V domains shown)
VH: QVQLVQSGAEVKKPGASVKVSCKASGYTFTSYWMNWVRQAPGQGLEWMGRIDPYDSETHYAQKLQGRVTMTTDTSTSTAYMELRSLRSDDTAVYYCARGGYDFDVGTLYWFFDVWGQGTTVTVSS
VL: DIQMTQSPSSLSASVGDRVTITCRASENIYSYLAWYQQKPGKAPKLLIYNAKTLAEGVPSRFSGSGSGTDFTLTISSLQPEDFATYYCQHHYGTPRTFGGGTKVEIK
On to B1, for which the “killing of PCa cells by patient-derived NK cells (in words)” value is reported as “potentiated” in assay [5] (GFP LNCaP, 1:1, 24 h, monalizumab in combination with enza and daro); “potentiated” in assay [7] (GFP PC3, 1:1, 24 h, monalizumab in combination with enza and daro). The “median number of cells in co-culture” value in assay [5] (LNCaP and NK cells, monalizumab added to darolutamide or enzalutamide, FIG. 3B) is listed as “decreases”; in assay [7] (PC3 and NK cells, monalizumab added to darolutamide or enzalutamide, FIG. 3A), “decreases”. For the same molecule, the “immune-mediated NK cell killing of PCa cells (in words)” value in assay [6] (co-culture PCa + NK-92 cells) was “did not enhance”. For the same molecule, in [6] (co-cultures of PC cell lines and NK cells with Enzalutamide (API), [T] plus monalizumab), the “ARi immune enhancement effect” value turned out to be 43.92%. Moreover, the results for the “NK cell killing of PCa cells (immune enhancement)” value in assay [8] and in [9] were 18.29% and 19.89%, respectively.
